Data: the DeepSol protein solubility set

Assay: soluble on expression in E. coli; label from the status in PepcDB or PDB records
In the case of “MEIDWLNAIPDSEDSEEDEEERQERARLLKEKEEEREACKKRYLERIEREEAQRFGKQFKIDPLTFAERLERKLIPAEKKQRYREFIPCVVDHFGGTDVHFVKAMESIKTENQLLDFLTAAHKPLIEQTEDSVLHDWLAEFYKETVTSLLEMTSITDHDLKCFKVGNVFDEVRTNAIQKKVQKMEMENFAERVREAKIKEAEERKATAEATRDVLESLEGMTLSHVKHDELEDELNTIALEELHSTTRDTSPPRTRLSTRAQSQLNAMVKHLFVPAAPTTSTEVPMEMDKDDDEMDAYDDSDLKILFSSTTKESLKMEMGEENDECNFEPSQVSKYPSFQASSQFDETRRYDYDEEGDNKELARLRRPTWRKILNYEKRIGTNFHRFTNAENANLWRRNLYEDKRKKTSKVQFVDYDSPLNKMRLFVRPNEQFFNADDGPMTDRIDFSLSDGFNVLATRKIMSPLVCGSNYDCEFMARTREGPQYLVRKTQSWMHSYCGNILGRFWYLRDRHADKYPGVKDSNYDQKRRQNFGLLRYYTLEELIEVFGLLLPDVQIAMRRGVRRENMPVSTVVKLKEKDREAVESPVQGVLLLTDWRLVHLFDNTAIVNAIIHYFPTNLGGVFFEAMTEYLTELLLDNTIEFHTIIFAFGGTPTFKKQDFLAFWKKLIVRTTQSIDVFWMAQDWCDGLNSTQEEIDQLNEFNHYVEQMFTMMRKNGNINYNYCDIRKQYNIPSLDPSFNRPNDFLLLEPIYRAYINHFVDECNCYLKGPFVKCQPRVHNGYAQRNGTKLEFSK”, the “soluble on expression in E. coli” value is reported as “soluble”. For “MEIEKENGSKRLAVLIDADNAQASVLGELLAEISKYGTLNIKRAYGDWTSSNLKSWKEHLHKYAIAPIQQFNYTSGKNATDSALIIDAMDLLHDAPLEGFCLVSSDSDFTRLATRIRESGLVVYGFGEKKTPEAFVAACDKFIYTEILRQEEQRRPESSWNDSWSKSESKALKSIIQPAIKATMKEDDWVPLASIGLYISKNHPAFDPRNYGYDKLGRLIETLDFVELKKIPFKDGSSNTHVMVRLRSLEHHHHHH”, the “soluble on expression in E. coli” value was “not soluble”. For “MEIERKFLVLNDDFKAKATAVHNIIQAYLVADERCTVRIRLCNDEAYLTIKGKTNEGGLSRSEYEYSVPFEEAKEMLTLCLPGYIMKQRYCVPHKGHVWEVDVFEGRHKGLVIAEVELATEDESIELPDWIGNEVTGDKRYYNSFIAGIQK”, the “soluble on expression in E. coli” value was “soluble”. For “MEILRRECGAVEENAYIVKLSSGIDFIIDPGFSSSEWVLENAKNPKAILITHGHYDHVWDGAQLSKLLKNTPIYAPKDDVFMLENDIFHLGMPVFSPNFSVPCNKGCTTLEIANTTIKYWHFPGHTPGCSIIEIEGVIFSGDFIFYRSIGRYDFPYSNEKDMKESLLRFQNLDFPKDIEIYPGHGDKTSFFAEREHSKIWVSRMALEHHHHHH”, the “soluble on expression in E. coli” value was “not soluble”. With “MEKEKSLMKKQSKKSKKQNIEINYLDLIPVRSEELHWHKDIKGRVILDVENTGWFNKIAQTVFNKPQYTKVHLDAQGTFIWPLIDGKRTVTDIAALVKEEFGEAAEPLYPRIIKYFQIVESYHFIKFANMPSK” the “soluble on expression in E. coli” value was “not soluble”. In the case of “MEKGTPPTHDSDNWMGRAKEIGNGGWDQFQFLFFDPNGYLYAVSNDKLYKASPPQSDTDNWIARATEIGSGGWSGFKFLFFHPNGYLYAVRGQRFYKALPPVSNQD”, the “soluble on expression in E. coli” value is reported as “soluble”. With “MEKIIITATAESIEQVKALLAAGVDRIYVGEANYGLRLPHNFSYDELRQIAKLVHDAGKELTVACNALMHQDMMDQIKPFLDLMIEIAVDYLVVGDAGVFYVNKRDGYNFKLIYDTSVFVTSSRQVNFWGQHGAVESVLAREIPSAELFTLAENLEFPAEVLVYGASVIHHSKRPLLENYYHFTKIDDEVSRERGLFLAEPGDASSHYSIYEDNHGTHIFINNDIDMMSKLGELYAHGLTHWKLDGIYCPGDDFVAITKLFIQAKTLLEAGQFTQEEAEKLDQAVHAHHPAGRGLDTGFYEFDPKTVK” the “soluble on expression in E. coli” value was “not soluble”. With “MEKKITQEGLARMIDKGMGTLLALPEIEKKKKSGDLPDNFKMEDGFGVYRVEVGGNEYLCVTNILCNKCERVNGKVKRCEAHKKKRKARKVRKDGDVADDTSDREKLGGLRHVNDEEEEEDKIEGAVTPDFVMTPGIGGAIILVPVDAKNNDRAGPPAKGLNHVKGILVRGAGNIPQFIPNDRLTKAHKLRFDNYIEGELNLVNGKEVFVPNNLGAAKMDEKNAQDVAKAAVADKVDQKVVDAIGKDMVVAVQVDVADNGMPVMKVLEGKPKDKETPVGIIVKANDQVQFVQIVGRELGGGKDAKMMPCTIPENGKVGDVIADVYVNKEGKAVSAKPGDAPAGAPVIGQVIVGQNDQLVFVAKGENKDDAVKKGAKMTPEMKEKLEQAQAKVQAAVTGQSADHIQEQVNRIGVPEAAATSAANGGNNAGGGGSSAEVRSVGFGAQQFGGSQFARPIPAGGGGGGSGGYGAGGGGSGGYGAGGAGGARNSASNGSYGSSANEVKSVGFGAQQYGGSVFAKPSGTGGGYVSAGSSARKSGESGAGGGGAGGGKAGGAKNSASYGSSANEVKSVGFGAQQYGGSVFIRK” the “soluble on expression in E. coli” value was “not soluble”. For “MEKLRMNVQGRVQGVGFRYMTKMVADQLGVTGSVRNEDDGSVSITAIAPEDIMETFIKKIKDSPSPAGRVTYVDIQEDPLLEETEQFKVIQ”, the “soluble on expression in E. coli” value was “soluble”. For “MEKPVICRIKEIIEESPTVKTFVVDKDFDFKPGQFAMLWLPGVDEKPFGFSSKNSFSVARVGEFTKKMHELKEGDIIGVRGPYGTYFEPIGDKVLAVAGGIGAAPIITAVEEFSKQGIEITTILGARTKEELLFLDRFEKVSRLEICTDDGSFGFKGFTTEKMKEVLKEEKFDLIITCGPEIMMKKVVEIANEYNIPVQVSMERYMKCGIGICGQCCVDDEGLCVCKDGPVFWGDKLKFIREFGKYKRDASGKKIYY”, the “soluble on expression in E. coli” value was “not soluble”. For “MEKTRANSHLRSQPIDWTIEEVIQYIESNDNSLAVHGDLFRKHEIDGKALLRLNSEMMMKYMGLKLGPALKICNLVNKVNGRDHHHHHH”, the “soluble on expression in E. coli” value was “soluble”. For “MELACHECGFKGEVQDFAFLCKNGCPACGESDMRQCPRCGAHVMFSRAAALEKEEMQMRDLCRELAGIERSDKPEVQKRAMELIGGLRRMNERWNIPQLGDFIKQRSRELFF”, the “soluble on expression in E. coli” value was “not soluble”. In the case of “MELDFDKMNGLVPAIIQDNETRKVLMLGFMNKEAYDKTVETGKVTFFSRTKNRLWTKGEESGNFLHVVSIKADCDNDTLLIQADPAGPVCHTGTDTCWGEKNEEPVMFLKALQDFIDKRHEEMPQGSYTTSLFESGINKIAQKVGEEAVETVIEATNGTNERLIYEGADLIYHMIVLLTSKGYRIEDLARELQERHSSTWKKH”, the “soluble on expression in E. coli” value is reported as “not soluble”. In the case of “MELKKIVEAILFSSSEPVDARELRKITGKDKVEILNAIGELIKDYESRDTSIEIIKVGEKYLMRVKPQYAEYVERFTVREFDRGTLRTLAVIALKQPITLAKVAKIRGNKCYEHVKKLQERGLVKAEKKGRSTILTTTEEFATYFGLDSAEPEKIKEALKGYLEAE”, the “soluble on expression in E. coli” value is reported as “soluble”. For “MELLCCEGTRHAPRAGPDPRLLGDQRVLQSLLRLEERYVPRASYFQCVQREIKPHMRKMLAYWMLEVCEEQRCEEEVFPLAMNYLDRYLSCVPTRKAQLQLLGAVCMLLASKLRETTPLTIEKLCIYTDHAVSPRQLRDWEVLVLGKLKWDLAAVIAHDFLAFILHRLSLPRDRQALVKKHAQTFLALCATDYTFAMYPPSMIATGSIGAAVQGLGACSMSGDELTELLAGITGTEVDCLRACQEQIEAALRESLREASQTSSSPAPKAPRGSSSQGPSQTSTPTDVTAIHLLEHHHHHH”, the “soluble on expression in E. coli” value was “not soluble”. For “MELRAVQEVLKEERLDGWLLYSFGGSNPLALEVLGLAHLHLTRRFAYLIPREGAPTLLCHAIEASLFPPLPGNRKTYHTWRGFLEGLAHLLGGMRRVALEYVPGGQIPYLSRVDGGTLDLLRGLGLELASSWPLLLLFQTWDEERLQSHRRAAAGLARAKDLALDFLRQNPEASEREVQSVLVRALEGEGLIFDHPPMVAFGKNAANPHHEPSEVRLEEGAVVLLDLWAKAPGGVYADLTWMAGKRPPEAAHRAFQAVARARDEAIAFVERAYREGRYPKGFEVDRLARKVLEEEGYGPYIRHRTGHNLGEEVHGSGPHLDDLETHDLRPLVPGLAFTVEPGVYLEAFGVRTEVDVYLHPTGPEVTTPLQEAITPL”, the “soluble on expression in E. coli” value was “soluble”. For “MELRIFFDGNCPLCSAEMRQLKARDPDDHIELVDLNAENFSSRFSYIDKDYANTILHGETASGQVLLGLDVTCKAWALTGTRPWIQVLRLPLIKPLADWCYLRFAKHRYRISYLLTGKARCDSQCQLPKLEHHHHHH”, the “soluble on expression in E. coli” value was “soluble”. In the case of “MELSPAERQLLLAHRLAVFDGCVVYDAQPPVSAEHVQRLAEGLAGPIPEDLLRLWRTCFGGRLGYDLEVDYDGHRHPFSFSELFYPDSDGYHDLWGWIEHERELAAEAAAEEGRDWNGKLAYLPFGGFEYLERLYVCVEPGPEHGAVIAWSHGLPPAWAGRLHQDSVTRLADDVGGLFRLLSFEQDPFDAENACGVADELLEALDALEAAGEPGKALKGRLEVLLRQRILDWRPALADGSLAAEPRLRQLALAEAAQDGDIDLLQRLRDAGCDFAETLRGRGGVLEACLARGRLEAARWLLDQGVAVHQDSLQIGAAHLDAVLAERLLRLGAISDPNTVLLALQYGDADAARIMARPLLEESPARANALRLALASRAERERSDARRVRSGKMGSNRSPDDYLALAERLERFLAELPG”, the “soluble on expression in E. coli” value is reported as “not soluble”. In the case of “MEMVNAEAKQSVPLLTPYKMGRFNLSHRVVLAPLTRQKSYGSVPQPHAILYYSQRTSPGGFLIAEATGVSDTAQGYPDTPGIWTKEHVEAWKPIVDAVHAKGGIFFCQIWHVGRVSNRGFQPRRQAPISCTGKPIMPQMRANGIDEARFTPPRRLSIEEIPGIVNDFRLAARNAMEAGFDGVEIHGAHGYLIDQFMKDKVNDRTDEYGGSLQNRCKFALEVVDAVAKEIGPDRVGIRLSPFADYMESGDTNPEALGLYMVESLNKYGILYCHMIEPRMKTVGEIAACSHTLMPMREAFKGTFISAGGFTREDGNEAVAKGRTDLVAYGRWFLANPDLPKRFQLDAPLNKYNRSTFYTSDPVVGYTDYPSLESTA”, the “soluble on expression in E. coli” value is reported as “soluble”. For “MENMIVIMAGGRSSRMGAEKPILKVNGKPMILRVYEESTKVGETLVAISKNTPKTRELCIKEGIPLIETPGEGYVEDVRYLLKELGSFVSVSADLPFVKACDIAEVKKAFDGKTSLTGVLPLSKVPTDLRPVVYKGYVIVGLNGVGFEGEKFYELSNPLLALNVNTPEELKLANRIAKLIG”, the “soluble on expression in E. coli” value was “soluble”. With “MENQLTKSVEERTFQYQDSLPSLPVPALEESLKKYLESVKPFANEDEYKKTEEIVQKFQEGAGKRLHQKLLERARGKRNWLEEWWLNVAYLDVRIPSQLNVNFVGPCPHFEHYWPAREGTQLERGSMMLWHNLNYWQLLRREKLPVHKSGNTPLDMNQFRMLFSTCKVPGITRDSIMNYFKTESEGHCPTHIAVLCRGRAFVFDVLHEGCLITPPELLRQLTYIHKKCSNEPVGPSIAALTSEERTRWAKAREYLISLDPENLTLLEKIQTSLFVYSIEDSSPHATPEEYSQVFEMLLGGDPSVRWGDKSYNLISFANGIFGCCCDHAPYDAMVMVNIAHYVDERVLETEGRWKGSEKVRDIPLPEELVFTVDEKILNDVSQAKAQHLKAASDLQIAASTFTSFGKKLTKEEALHPDTFIQLALQLAYYRLHGRPGCCYETAMTRYFYHGRTETVRSCTVEAVRWCQSMQDPSASLLERQQKMLEAFAKHNKMMKDCSHGKGFDRHLLGLLLIAKEEGLPVPELFEDPLFSRSGGGGNFVLSTSLVGYLRVQGVVVPMVHNGYGFFYHIRDDRFVVACSSWRSCPETDAEKLVQMIFHAFHDMIQLMNTAHL” the “soluble on expression in E. coli” value was “soluble”. For “MENSSDPRTQSAATASLSEMIATITKTFIIAHVDDSDEHLAQALVYNAGRLAWRMREQGVHTDYKTSLSDVVTDADRAAEEFVSGVLTTLRPEDGIVGEEGATRNSTSGRTWVIDPVDGTYNFVNGSDFWCSALALIEGEPEDPTSVIFGAVHRPAMGYTWFGGPEIPTTCDGQPVAKLENKSTELINFATYLNPPCLQQPEIVTRWLTIAQAFLSWRMMGSGSVELANVADGTIGAYVQHSVKDWDWLPGRALVEGAGGKCIKVESGGVTWSIASNPQATDEVAAMLSR”, the “soluble on expression in E. coli” value was “not soluble”.
